In assay [1] the target is hen egg-white lysozyme (Hewl) (hen (chicken)) (UniProt P00698).
Assay [2] addresses human lysozyme (HL) (human) (UniProt P61626).
In another assay the target is T1, human lysozyme (HL) (human, UniProt P61626 19-148, NT-647-NHS fluorescent dye (in the MST experiment only)).
T1 construct: human C-type lysozyme; MST used labelled recombinant HL; also called rHL; recombinant HL; source: bought: Sigma-Aldrich (recombinant HL, MST)
T1 sequence (looked up): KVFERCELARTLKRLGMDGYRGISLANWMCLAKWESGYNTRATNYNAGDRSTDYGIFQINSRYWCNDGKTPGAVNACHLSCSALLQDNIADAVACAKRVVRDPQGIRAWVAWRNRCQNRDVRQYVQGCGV
The assay is described as follows: MST; NT-647-labelled rHL (8.3 nM) constant, 16 two-fold serial dilutions of 2.5 mM rNm-ACPI mixed 1:1; 50 mM Tris pH 7.4, 150 mM NaCl, 10 mM MgCl2, 0.05% (v/v) Tween-20; 20% and 40% MST power, LED 20%; triplicate. The following applies: both partners purified.

Experimental findings from PMC5507604, “Structure of the Neisseria Adhesin Complex Protein (ACP) and its role as a novel lysozyme inhibitor” (PLoS Pathogens, 2017) are described below.

hen egg-white lysozyme (Hewl) (hen (chicken)), sequence (P00698 19-147): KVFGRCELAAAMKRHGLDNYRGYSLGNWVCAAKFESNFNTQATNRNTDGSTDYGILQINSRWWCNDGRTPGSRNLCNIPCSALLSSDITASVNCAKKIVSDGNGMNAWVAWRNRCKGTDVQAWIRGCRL

In turn, “Nm-ACPI triple mutant Asn79Ala/Tyr84Ala/Gly95Ala (natural protein)” yielded an inhibition of Hewl (EnzChek assay, initial rate period) compared with wild-type Nm-ACPI (% reduced activity) in assay [1] of 39.
“recombinant Neisseria gonorrhoeae Adhesin Complex Protein (rNg-ACP) (natural protein)” displayed a protection of M. lysodeikticus cells (1 mg/ml) against lysis by HL (2 μg/ml), OD 595 nm over 2 h and at 24 h, rNg-ACP 0-0.5 μg/ml; ~30–60% protection at 0.1 μg/ml, not protective below 0.1 μg/ml in assay [2] of 80 to 100 % protection.

B1: recombinant Neisseria meningitidis Adhesin Complex Protein Type I (rNm-ACPI) (natural protein)
chain: AGTDNPTVAKKTVSYVCQQGKKVKVTYGFNKQGLTTYASAVINGKRVQMPVNLDKSDNVETFYGKEGGYVLGTGVMDGKSYRKQPIMITAPDNQIVFKDCSPR
notes: Adhesin Complex Protein (ACP) Type I, encoded by Allele 1, N. meningitidis serogroup B strain MC58 (NMB2095/NEIS2075); mature polypeptide of 103 residues (amino acids 22-124), mass 12,306 Da with the tag; disulphide bond Cys38-Cys121; Cloned between NdeI and XhoI of pET22b(+); The same construct, 15N-labelled, was used for NMR; also called NMB2095; NEIS2075; source: E. coli BL21 (DE3) pLysS, …
In turn, B1 returned a Kd in the assay with human lysozyme (HL) of 11 µM.
